Source: the DeepSol protein solubility set

experiment: soluble on expression in E. coli; label from the status in PepcDB or PDB records

Row | Sequence | soluble on expression in E. coli
1 | MSLVDHVHFERELTLLKSDVSKMLFLVSESLNDAIESLETMNETLARKVLESDDMIDELNREIEEKAYQIIARYNPILKQLRYIITILKFSNDLERIGDLSCNIAEKCLFLSEEKIKFEMLKELKDMFGSTLKVVQDAFKAFVEEDVDLAFRLWKFDDVIDEMEKKIRRIVVERIREGNISAELALVYILIARDLERVGDHANNLCEEVIYIETGKNMKEFLRGVESGSEGADSEGGSHHHHHH | soluble
2 | MNNFTYEKLHNNLQYLKLNTIEELLDNCLEIAARDSKTTMEVLDYLFEQEKKHREAAAIERRMKSAGFPVKKMLEEFDFEFQSSINKKVIEDLATLRFVHNAENIVLLGPPGVGKSHLAIALGIEAVKAGISVHFTNTGNLIERLKIANREGILEKKIRDLMKFKVLIIDEIGYLPFDDEGAHCLFQLISRRYEKSSTILTSNKSYGEWGEIFKDHVIAAALLDRILHHCTTINIKGESYRLKERKKQGIKTGLIRHNSTEILENLEHHHHHH | soluble
3 | MRGSHHHHHHLVPRGSVQVISSYDQFKQVTGGDKVVVIDFWATWCGPCKMIGPVFEKISDTPAGDKVGFYKVDVDEQSQIAQEVGIRAMPTFVFFKNGQKIDTVVGADPSKLQAAITQHSA | soluble
4 | MGFYQGPDNRKITGGLKGKHRDKRKYEIGNPPTFTTLSAEDIRIKDRTLGGNFKVRLKYTTTANVLDPATNTAKKVKILEILETPANKELARRGIIIRGAKIRTEAGLAVVTSRPGQDGVINAVLLKNESQRSLEHHHHHH | not soluble
5 | GIDPFTRDGPLVLIGSGLSSEQQKMLSELAVILKAKKYTEFDSTVTHVVVPGDAVQSTLKCMLGILNGCWILKFEWVKACLRRKVCEQEEKYEIPEGPRRSRLNREQLLPKLFDGCYFYLWGTFKHHPKDNLIKLVTAGGGQILSRKPKPDSDVTQTINTVAYHARPDSDQRFCTQYIIYEDLCNYHPERVRQGKVWKAPSSWFIDCVMSFELLPLDS | soluble
6 | MGSDKIHHHHHHMETMFDTLLQLPLFQGLCHEDFTSILDKVKLHFIKHKAGETIIKSGNPCTQLCFLLKGEISIVTNAKENIYTVIEQIEAPYLIEPQSLFGMNTNYASSYVAHTEVHTVCISKAFVLSDLFRYDIFRLNYMNIVSNRAQNLYSRLWDEPTLDLKSKIIRFFLSHCEKPQGEKTFKVKMDDLARCLDDTRLNISKTLNELQDNGLIELHRKEILIPDAQKLL | soluble
7 | MSLAAGRSSTSGLVAPDIENPFFPEIIRAFQESTNLSGLEAVGMNTAYDAQRTRGVIERPVSLQVPGAAFFTTQVDSGIKNALAARNIAGVYMDYGDAAPGISSIAVNYPEGMLQAITHLRDLGHRRIGLVGGPAHGAGAQRRKAAFLEGLKTNGIEGRATESDFSVQGGYFSCSKLLASYDCTAVIAANDLMAIGALHLAYDRQIAVPAQLSIIGFDDITFAKFTQPALTTVAVPRAEIGRVAFECRLALMKDPGAAGESHEIPTHLVVRQTTASVGEGHHHHHH | not soluble
8 | MAHHHHHHMNYNNNSFIPPTHVVKNIYTSAKTKFFLIKSSSDKNIAISLNYNIWATTPKNEYKFVSAFMEHDYVILVFSVNGSSKFCGYAIMQSKPGESKNNNVYFYYDNKVFRGKNFDIQWIRVVDVPFQEVAHLKNSLNEYKPIKVGRDGQEIEQMAGIQLCEAFESNFIKINNNITDTNTKPNIPPMYNMNTNNYVDSPNMNENIDMIKLYPYNNNFNINYNNFRNLYEESQYNLFNFYNPALHIFPIDLTNMNYDEYIYLYEKSQLVWQQKMLQMKANMNCIKQ | not soluble
9 | MTNLNYQQTHFVMSAPDIRHLPSDCGIEVAFAGRSNAGKSSALNTLTNQKSLARTSKTPGRTQLINLFEVVDGKRLVDLPGYGYAEVPEEMKRKWQRALGEYLEKRQSLQGLVVLMDIRHPLKDLDQQMIQWAVESNIQVLVLLTKADKLASGARKAQLNMVREAVLAFNGDVQVEAFSSLKKQGVDKLRQKLDSWFSELAPVEEIQDGE | not soluble
10 | MGSDKIHHHHHHMQDLVQAYKEEKNARIKERILAVKLHVVDGKSEKEVSKMLNKGYSTIKLWIGKYKKEGLDGLKDKPRSGRPRKVEEEKIKQILEDKPQKYGIQQEYWTMKTLKIALQEQGIEYKKSRLYELVHELGYNLVKPRPTNIQAEKDKWEDFKKIKKLERKALFFLDECRTVISTSIKKVLAKVGSKPVMRVNIGFSSIYVILAINAWTGEVVVSLAKRPNSESVKYFLRYFKRRVGSGRVYMVMDNYSPHKTKGTLEVCRRKGIHPVFTPPYSPELNMAEAVFKSLKNYMSNKIFYTIEDVKNCIKQFFEENKYRFNLNAITYLGLDKIEV | not soluble
11 | MGSDKIHHHHHHMIKVAAAGGGTGGHLYPLLAILETLAKRVDVKVLFFAVKGKIDERVVRKDHPEFETVSIDVRGLLRPLHHPKNLWRTLKIGIATIEVKKHLKRFKPDLVVLTGGYISGVVGLAAKDLGIPIFVHEQNVVPGLAVKVLSQYAKKVFVSFERTRDYLREWQDKIVVTGCPVRETEKEAPLKDFVLVLGGSLGSEAINELMEKVYPELQETQFVHSTGSDDWTERLSVFPNVTALTYIDPMGAYWKKAIASISRAGASTIAEMMYYGVPGILIPWESSAESHQLENALEAERLGYAIVIRENEASPRKIIESIDKVVKKGKIEKMKENPASKISKEILGEIM | not soluble
12 | MESKVVVPAQGKKITLQNGKLNVPENPIIPYIEGDGIGVDVTPAMLKVVDAAVEKAYKGERKISWMEIYTGEKSTQVYGQDVWLPAETLDLIREYRVAIKGPLTTPVGGGIRSLNVALRQELDLYICLRPVRYYQGTPSPVKHPELTDMVIFRENSEDIYAGIEWKADSADAEKVIKFLREEMGVKKIRFPEHCGIGIKPCSEEGTKRLVRAAIEYAIANDRDSVTLVHKGNIMKFTEGAFKDWGYQLAREEFGGELIDGGPWLKVKNPNTGKEIVIKDVIADAFLQQILLRPAEYDVIACMNLNGDYISDALAAQVGGIGIAPGANIGDECALFEATHGTAPAYAGQDKVNPGSIILSAEMMLRHMGWTEAADLIVKGMEGAINAKTVTYDFERLMDGAKLLKCSEFGDAIIENM | soluble
13 | MSLYKAYLIDLDGTMYRGAEVIPEAIIFIENLKRAGLPYLFVTNNSTKTPGQVAEHLTDMGIQAVSDDVFTTSQATVQFMMEQKREKTVYVIGERGIKQELTDNGFEITSSNPAFVVVGLDREVDYEKFSKAALAVRGGAMFISTNGDAAIPTERGLLPGNGSITSVVSVATETAPIFIGKPESIIMEQALAKLGVHKDEAIMVGDNYETDIMAGINYGMDTLIVHTGFTSKEALLTKEIQPTYAVTKLTDWEFNEGHHHHHH | not soluble
14 | VQTGIDTLLPDYKKQLKGKRIGLITNPAGVNTSLKSSVDILYENPDIKLTALFGPEHGVRGDAQAGDEVGSYIDEKTGVPVYSLYGKTKKPTPEMLKNVDILMFDIQDVGTRFYTYIYTMAYAMEAAKENGIPFMVLDRPNPQGGNHIEGPILEPEYASFVGLYPIPLKHGMTIGELASLFNKEFSIDADLTVVKMKHWKRKMDFDDTRLPFVLPSPNMPTVESTFVYPATGLIEGTNISEGRGTTKPFELIGAPFIKSTELEETLNSLHLPGVTFRAASFTPTFSKHQGTLCHGVQLYVTDRDKFEAVKTGLSVIKTIHDLYPEDFEFLSTGSFDKLAGNGWIRTKIENGTSVENIINSYEKTLQQFSKTRKKYLIY | soluble
15 | MSLLRLTSVVGIGHAEDPNPRFRKQMEDVCVMIDKLGNSHSTGFFAIYDGHGGQEAARIAGDNLHRYLLEDLLNQKLEHLLEADPLANQSMSQPTCSQAGSKLSSDGHNLSGNPSGVPKDSQLTNATMSSGVRTGTFSKDKISPSAKVRVPVPPNEPSKLGAIIRKAIQRTDDVLRQKNVLYVGCTALIALVTKYTIEFASVGDSRAVISINGTAYRCTEDHKASDKLEIDRIKSLGGTVIFGRVNGFISVSRALGDHCIKNLVTCDPFLRSYPRYPTPDSVGVTASSTNELDEFIIMACDGVWDVVTDQQSVDTVRKCLKETGSPQKAAFELKNLAIRSGTQDNVSVLVLLLREINKWEGHHHHHH | soluble
16 | GVVETPRSALKVTAQPNDVLLGNYVVLSPQTVLKSSKLAPVHPLAEQVKIITHNGRAGGYQVDGYDGRVLLPCGSAIPVPEFQALSESATMVYNEREFVNRKLYHIAVHGPSLNTDEENYEKVRAERTDAEYVFDVDKKCCVKREEASGLVLVGELTNPPFHEFAYEGLKIRPSAPYKTTVVGVFGVPGSGKSAIIKSLVTKHDLVTSGKKENCQEIVNDVKKHRGKGTSRENSDSILLNGCRRAVDILYVDEAFACHSGTLLALIALVKPRSKVVLCGDPKQCGFFNMMQLKVNFNHNICTEVCHKSISRRCTRPVTAIVSTLHYGGKMRTTNPCNKPIIIDTTGQTKPKPGDIVLTCFRGWAKQLQLDYRGHEVMTAAASQGLTRKGVYAVRQKVNENPLYAPASEHVNVLLTRTEDRLVWKTLAGDPWIKVLSNIPQGNFTATLEEWQEEHDKIMKVIEGPAAPVDAFQNKANVCWAKSLVPVLDTAGIRLTAEEWSTIITAFKEDRAYSPVVALNEICTKYYGVDLDSGLFSAPKVSLYYENNHWDNRPGGRMYGFNAATAARLEARHTFLKGQWHTGKQAVIAERKIQPLSVLDNVIPINRRLPHALVAEYKTVKGSRVEWLVNKVRGYHVLLVSEYNLALPRRRVTWLSPLNVTGADRCYDLSLGLPADAGRFDLVFVNIHTEFRIHHYQQCVDHAMKLQMLGGDALRLLKPGGILMRAYGYADKISEAVVSSLSRKFSSARVLRPDCVTSNTEVFLLFSNFDNGKRPSTLHQMNTKLSAVYAGEAMHTAGC | soluble
17 | MGHHHHHHSHNTALVLCPFKDSGCKHRCPKLAMARHVEESVKPHLAMMCALVSRQRQELQELRRELEELSVGSDGVLIWKIGSYGRRLQEAKAKPNLECFSPAFYTHKYGYKLQVSAFLNGNGSGEGTHLSLYIRVLPGAFDNLLEWPFARRVTFSLLDQSDPGLAKPQHVTETFHPDPNWKNFQKPGTWRGSLDESSLGFGYPKFISHQDIRKRNYVRDDAVFIRAAVELPRKILS | not soluble
18 | MGSDKIHHHHHHMVNFLNEGGYVLDFSTADFDAFTYKSIGVPLCETYRLSKGKSLIAYINDTKYEDKIKLLSDLIRYYELSSMKEHDEENRKSRAVAYKKCRSILDKAGGTMVMTATAETLKEAFDSDYISAQIDLMLNLKDGNPTEAIGKAKELIESCCKTILEFEGCTVDKDWEVPRLVDETFKHFHLMPKNISDDVKGAKSIKAILGNLKAIAQGVAELRNLYGSGHGKSSSYKGLESRHASLAIGSSTTLVRFLWDSYERHHNNEVN | not soluble
19 | MGSDKIHHHHHHMRLVVDGFGKYLGIENGLIVVKEKGKALRKVRPEDLKQVLIIGKAAISSDAIKLLLKNRVDVVFLDFNGEILGRLSHPLIGTAKTRREQYLAYGDKRGVHLAKEFIKAKMANQMAILTNLAKARKDSNPEVAESLLKAKKEIDACLNELDGVEAEMIDKVRERLLGIEGKASKHYWDAISLVIPEEYRFNGRRGIEIGSPRYAKDIVNAMLNYGYSILLAECVKAVELAGLDPYAGFLHVDVSGRSSLAIDLMENFRQQVVDRVVLRLISYRQIKPEDCEKRNMVCQLSDNARRLLLASLLERLDSKTQYRGRNLAYSSIILLHARDVVAFLRGERRYEGFVQKW | not soluble
20 | MEDFNRRAEELDQVEKNVSLGLKKIQDEMDSIQLEVEPDDVEITSTKRGFWEHDITNLSPFPVVCRVRATSPSMFVVNKNVFLLKPMDFFKLMISRKPGQIRSHHLKIDVTQFVDTFNPINLLDYFIASNPFKTFVVRYHGAPRYWSDALEMNSWLTGEQLNEQWEKEMKKTSQEKKSSLETSEVSSVNEFVDAEEDNFPVQRAAMNITNVLTVASQVPDESNKNEPDSDIDSVVSGTIDSELANLKI | not soluble
21 | ASLDSEVELLPHTSFAESLGPWSLYGTSEPVFADGRMCVDLPGGQGNPWDAGLVYNGVPVGEGESYVLSFTASATPDMPVRVLVGEGGGAYRTAFEQGSAPLTGEPATREYAFTSNLTFPPDGDAPGQVAFHLGKAGAYEFCISQVSLTTSAT | soluble
